Laboratory results as given in paper PMC11088064 (BMC Immunology, 2024).

How the values were obtained:
[1] = target: T1, hPD-1 on CHO cells (human, UniProt Q15116); assay: cell-based or functional assay
[2] = target: T2, mPD-1 on CHO cells (mouse, UniProt Q02242); assay: flow cytometry on cells; competition: PD-1-expressing CHO-S cells with serial dilutions of anti-PD-1 at 4 °C for 15 min, then human Fc (IgG1)-labeled PD-L1 at 4 °C for 1 h in PBS/2% BSA; bound PD-L1 detected with PE anti-human IgG1/3; conditions: one partner purified
T2 construct: also called mPD-1-expressing CHO cells; cellular mPD-1; source: CHO cells, stably transfected (pCMV3 vector), on cells

[3] = target: T1, hPD-1 on CHO cells; assay: as above; conditions: one partner purified
[4] = target: T3, hPD-1 I126A on HEK293T cells (Homo sapiens, UniProt Q15116, I126A); assay: flow cytometry on cells; shotgun mutagenesis alanine scan (Integral Molecular): hPD-1 wild type or mutants transiently expressed in HEK293 T cells, incubated with antibody, Alexa Fluor 488 secondary antibody; non-blocking control anti-PD-1 as reference; conditions: one partner purified
T3 construct: programmed cell death 1 (PD-1), human, alanine mutant of the shotgun mutagenesis library; source: HEK293 T cells, transiently transfected, on cells

[5] = target: T4, hPD-1 P130A on HEK293T cells (Homo sapiens, UniProt Q15116, P130A); assay: as above; conditions: one partner purified
T4 construct: programmed cell death 1 (PD-1), human, alanine mutant of the shotgun mutagenesis library; source: HEK293 T cells, transiently transfected, on cells

[6] = target: T5, hPD-1 L128A on HEK293T cells (Homo sapiens, UniProt Q15116, L128A); assay: as above; conditions: one partner purified
T5 construct: programmed cell death 1 (PD-1), human, alanine mutant of the shotgun mutagenesis library; source: HEK293 T cells, transiently transfected, on cells
T5 sequence (Q15116 25-288 L128A): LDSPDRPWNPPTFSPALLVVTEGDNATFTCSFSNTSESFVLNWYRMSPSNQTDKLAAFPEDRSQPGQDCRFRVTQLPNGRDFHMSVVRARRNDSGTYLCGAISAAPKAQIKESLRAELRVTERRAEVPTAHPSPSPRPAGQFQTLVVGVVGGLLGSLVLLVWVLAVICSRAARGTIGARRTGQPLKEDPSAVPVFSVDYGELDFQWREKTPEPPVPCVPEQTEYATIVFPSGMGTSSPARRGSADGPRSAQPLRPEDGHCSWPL

T1 sequence (Q15116 25-288): as the sequence (Q15116 25-288 L128A) above, with A104L counted along it
T3 sequence (Q15116 25-288 I126A): as the sequence (Q15116 25-288 L128A) above, with I102A, A104L counted along it
T2 sequence (Q02242 25-288): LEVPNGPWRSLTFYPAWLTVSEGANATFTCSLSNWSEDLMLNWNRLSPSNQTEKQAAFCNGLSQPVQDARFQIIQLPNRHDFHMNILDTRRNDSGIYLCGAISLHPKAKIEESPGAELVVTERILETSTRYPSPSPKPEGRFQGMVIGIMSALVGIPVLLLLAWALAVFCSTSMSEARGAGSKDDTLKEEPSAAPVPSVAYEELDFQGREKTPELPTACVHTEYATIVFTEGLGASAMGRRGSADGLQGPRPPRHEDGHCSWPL
T4 sequence (Q15116 25-288 P130A): as the sequence (Q15116 25-288 L128A) above, with A104L, P106A counted along it

reporter assay: luciferase (NFAT-RE) in Jurkat T cells expressing hPD-1 with human PD-L1 aAPC/CHO-K1 cells; IC50 of blocking hPD-1/hPD-L1 [1]: 6.3 nM | IC50 [2]: 6.7 nM | IC50 [3]: 9.9 nM
B1: GNUV201 (antibody, V domains shown)
VH: QVQLVQSGAEVKKPGASVKVSCKASGYTFTGYWMHWVRQAPGQGLEWIGMIHPNSDTTTYNEKFKNRVTMTRDTSISTAYMELSRLRSDDTAVYYCAGTDQAAWFAFWGQGTTVTVSS
VL: DIVMTQTPLSLSVTPGQPASISCRSSQNIVHSQGDTYLEWYLQKPGQSPQLLIYKVSKRFSGVPDRFSGSGSGTDFTLKISRVEAEDVGVYYCFQGSHVPWTFGGGTKVEIK
notes: humanized VH: CDRs of mouse clone 1G1 grafted into human IgG framework, with select point mutations; human IgG4 heavy chain constant region, hinge-stabilised S228P variant; IgG4 (S228P); the data statement says that datasets are available on request; also called humanized GNUV201; anti-PD-1; copies: 2 + 2
percent of WT PD-1 control binding [4]: 46.6% | percent of WT PD-1 control binding [5]: 19.5% | percent of WT PD-1 control binding [6]: 38.5%
